Test results as given in publication PMC9340783, “Development of a fully human anti‐GITR antibody with potent antitumor activity using H2L2 mice” (FEBS Open Bio, 2022).

T1: cynoGITR ECD hFc (Macaca fascicularis)
T1 construct: cynomolgus GITR, extracellular domain, Gln20-Glu155, NCBI XP_005545180.1; also called cynoGITR protein; cGITR; source: FreeStyle 293F, transiently transfected, purified by protein A
T1 chain: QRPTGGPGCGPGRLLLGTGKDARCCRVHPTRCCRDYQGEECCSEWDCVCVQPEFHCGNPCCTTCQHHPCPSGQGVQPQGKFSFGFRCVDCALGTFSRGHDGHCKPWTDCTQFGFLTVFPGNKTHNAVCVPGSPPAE

T2: cynoGITR on 293F‐cynoGITR cells (Macaca fascicularis)
T2 construct: also called 293F‐cGITR
T2 chain: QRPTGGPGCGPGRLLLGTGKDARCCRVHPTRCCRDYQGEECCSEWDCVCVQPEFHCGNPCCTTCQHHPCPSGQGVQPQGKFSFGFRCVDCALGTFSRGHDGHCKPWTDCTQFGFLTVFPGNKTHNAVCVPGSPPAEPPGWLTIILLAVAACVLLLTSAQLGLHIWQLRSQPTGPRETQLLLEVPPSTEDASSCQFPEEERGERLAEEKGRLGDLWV


Legend:
[1] = biological target: T3, human GITR on 293F‐hGITR cells (Homo sapiens (Human)., UniProt Q9Y5U5-1); assay: cell-based or functional assay
hGITR ECD hFc [2] = biological target: T4, hGITR ECD hFc (Homo sapiens (Human)., UniProt Q9Y5U5, Thr45Ala); assay: SPR; Biacore T200; hGITR ECD hFc immobilised on a Series S CM5 chip; antibody 0, 3.125, 6.25, 12.5, 25 and 50 nM; association 180 s, dissociation 600 s; conditions: both partners purified
T4 construct: human GITR (glucocorticoid-induced TNF receptor-related), extracellular domain, Gln26-Glu161 with Thr45Ala, UniProt Q9Y5U5.1; also called human GITR protein; source: FreeStyle 293F, transiently transfected, purified by protein A

hGITR ECD hFc [3] = biological target: T4, hGITR ECD hFc; assay: ELISA; indirect ELISA; antigen hFc fusion protein coated on 96-well plates (1 μg·mL^−1 overnight at 4 °C in Fig. 3B), antibody added, detected with anti-rat IgG/hIgG-peroxidase antibody; conditions: both partners purified
cynoGITR ECD hFc [4] = biological target: T1, cynoGITR ECD hFc; assay: as above; conditions: both partners purified
[5] = biological target: T3, human GITR on 293F‐hGITR cells; assay: flow cytometry on cells; 293F‐hGITR or 293F‐cynoGITR cells incubated with antibodies at 4 °C for 1 h, fluorescent anti-rat/human secondary antibody; EC50 of MFI curve; conditions: one partner purified
[6] = biological target: T2, cynoGITR on 293F‐cynoGITR cells; assay: as above; conditions: one partner purified
hGITR ECD hFc [7] = biological target: T4, hGITR ECD hFc; assay: ELISA; indirect ELISA; antigen hFc fusion protein coated on 96-well plates (1 μg·mL^−1 overnight at 4 °C in Fig. 3B), antibody added, detected with anti-rat IgG/hIgG-peroxidase antibody; conditions: both partners purified; remark: listed apart in the source
cynoGITR ECD hFc [8] = biological target: T1, cynoGITR ECD hFc; assay: as above; conditions: both partners purified
4‐1BB ECD hFc = biological target: T5, 4‐1BB ECD hFc (Homo sapiens (Human)., UniProt Q07011); assay: as above; conditions: both partners purified
T5 construct: 4-1BB, extracellular domain; called a paralogue of human GITR; The legend's word 'human' stands before OX40 only; human is likely

human OX40 ECD hFc = biological target: T6, human OX40 ECD hFc (Homo sapiens (Human)., UniProt P43489); assay: as above; conditions: both partners purified
T6 construct: human OX40, extracellular domain
T6 sequence (P43489 29-214): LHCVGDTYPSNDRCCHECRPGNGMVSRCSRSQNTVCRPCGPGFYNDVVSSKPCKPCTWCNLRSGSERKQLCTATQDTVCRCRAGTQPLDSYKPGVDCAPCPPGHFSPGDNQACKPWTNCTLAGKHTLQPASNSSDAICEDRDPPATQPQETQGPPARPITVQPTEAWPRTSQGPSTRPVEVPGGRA

T3 sequence (Q9Y5U5 26-241): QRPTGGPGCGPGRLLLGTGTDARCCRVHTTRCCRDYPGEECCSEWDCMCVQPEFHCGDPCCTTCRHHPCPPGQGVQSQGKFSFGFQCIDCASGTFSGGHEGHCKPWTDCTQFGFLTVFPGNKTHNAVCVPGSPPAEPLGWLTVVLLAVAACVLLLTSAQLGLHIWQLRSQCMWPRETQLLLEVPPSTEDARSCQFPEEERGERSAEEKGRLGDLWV
T5 sequence (Q07011 24-186): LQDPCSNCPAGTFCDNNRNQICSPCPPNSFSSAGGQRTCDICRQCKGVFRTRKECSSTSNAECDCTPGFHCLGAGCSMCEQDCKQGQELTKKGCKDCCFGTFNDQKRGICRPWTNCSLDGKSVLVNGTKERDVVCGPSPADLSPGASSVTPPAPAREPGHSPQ

NF‐ĸB luciferase reporter assay, Crosslinking, EC50 [1] | NF‐ĸB luciferase reporter assay, Crosslinking, Top ratio [1] | NF‐ĸB luciferase reporter assay, No crosslinking, EC50 [1] | NF‐ĸB luciferase reporter assay, No crosslinking, Top ratio [1] | Kd (hGITR ECD hFc [2]) | EC50 (hGITR ECD hFc [3]) | EC50 (cynoGITR ECD hFc [4]) | EC50 [5] | EC50 [6] | EC50 (hGITR ECD hFc [7]) | EC50 (cynoGITR ECD hFc [8]) | binding result (4‐1BB ECD hFc) | binding result (human OX40 ECD hFc) | Binder
8.86 nM | 14 fold | 0.787 nM | 11 fold | 0.135 nM | 0.088 nM | 0.09 nM | 0.184 nM | 0.235 nM | 0.0709 nM | 0.0637 nM | – | – | Tab9H6v3 (antibody, V domains shown, heavy chain variable region of clone 9H6v3 (AMGEN INC.); light chain variable region of clone 9H6v3 (AMGEN INC.)) VH: QVQLVESGGGVVQPGRSLRLSCVASGFTFSSYGMHWIRQAPGKGLEWVAVIWYEGSNKYYAESVKGRFTISRDNSKNTLYLQMNSLRAEDTAVYYCARGGRLGKDYYSGMDVWGQGTTVTVSS VL: DIQMTQSPSSLSASVGDRVTITCRASQGIRNDLGWYQQKPGKAPKRLIYATSSLQSGVPSRFSGSGSGTEFTLTISSLQPEDFATYYCLQHNTYPWTFGQGTKVEIK
6.78 nM | 12 fold | 0.262 nM | 7 fold | 0.537 nM | 0.101 nM | 0.111 nM | 0.164 nM | 0.268 nM | – | – | no binding | no binding | hab070e1 (antibody, V domains shown, as the VH of m14 (3503‐hab070‐VH); 3503‐hab070‐Vk(C2Y); the substitution is against the VL of m14 (Cys in FR3 of VL); position not given; Whole antibody, human IgG1 heavy chain constant region, human kappa light chain constant region; also called hab70e1; source: FreeStyle 293F, transiently co-transfected, purified from culture supernatant) VH: QVQLVESGGGVVQPGRSLRLSCAASGFTFSSYGMHWVRQAPGKGLEWVAVIWYETSNKFYVDSVKGRFTISRDNSKNTLYLQMNSLRAEDTAVYYCARYGASSGWYWYFDLWGRGTLVTVSS VL: DIQLTQSPSFLSASVGDRVTITCRASQGISSFLAWYQQKPGKAPKLLIYAASTLQSGVPSRFSGSGSGTEFTLTISSLQPEDFATYYCQQLNSYPFTFGQGTKLEIK
7.69 nM | 13 fold | 0.275 nM | 8 fold | 0.384 nM | 0.093 nM | 0.089 nM | 0.206 nM | 0.29 nM | – | – | no binding | no binding | hab019e2 (antibody, V domains shown, 3503‐hab019‐VH(EG + NLA); positions not given; as the VL of m12 (3503‐hab019‐Vk); Whole antibody, human IgG1 heavy chain constant region, human kappa light chain constant region; also called hab19e2; source: FreeStyle 293F, transiently co-transfected, purified from culture supernatant) VH: QVQLVESGGGVVQPGRSLRLSCAASGFTFSSYGMHWVRQAPGKGLEWVAVIWYAGSRKFYADSVEGRFTISRDNSKNTLYLQMNSLRAEDTAVYYCARGGSLEGGFFYYGMDVWGQGTTVTVSS VL: not shown
